# PMC6651611 (Slas Discovery, 2019)
# Tests used:
# [1] = test system: O=C(O)[C@H]1CSC(c2nc3ccc(OCc4ccccc4)cc3s2)=N1; experiment: purified protein
# CYP130A1 (CYP130A1-BM3R) = CYP130A1 (CYP130A1-BM3R) (Mycobacterium tuberculosis, UniProt P9WPN5); experiment: biochemical
# [2] = test system: COc1ccc2nc(C3=N[C@@H](C(=O)OCCO)CS3)sc2c1; experiment: purified protein
# CYP125A1 = CYP125A1 (Mycobacterium tuberculosis, UniProt P9WPP1); format: biochemical
# CYP124A1 = CYP124A1 (Mycobacterium tuberculosis, UniProt P9WPP3); format: biochemical
molecule,measurement,setting,value
CYP130A1 (CYP130A1-BM3R) (Mycobacterium tuberculosis H37Rv),Km,[1],37 ± 2.4 µM
same,kcat,[1],0.000667 ± 1.33e-05 s⁻¹
same,kcat/Km,[1],18.3 M⁻¹ s⁻¹
CC(=O)N1CCN(c2ccc(OC[C@H]3CO[C@](Cn4ccnc4)(c4ccc(Cl)cc4Cl)O3)cc2)CC1 (racemic) [ketoconazole],IC50,CYP130A1 (CYP130A1-BM3R),100 ± 20 nM
Clc1ccc(COC(Cn2ccnc2)c2ccc(Cl)cc2Cl)cc1 (stereo not shown) [econazole],IC50,CYP130A1 (CYP130A1-BM3R),50 ± 10 nM
CYP142A1 (Mycobacterium tuberculosis H37Rv),Km,[2],270 ± 22 µM
same,kcat/Km,[2],0.00333 M⁻¹ s⁻¹
Clc1ccc(COC(Cn2ccnc2)c2ccc(Cl)cc2Cl)c(Cl)c1 (stereo not shown) [miconazole],IC50,CYP130A1 (CYP130A1-BM3R),17 ± 3 nM
COc1ccc2nc(C3=N[C@@H](C(=O)OCCO)CS3)sc2c1 [Luciferin-ME EGE],luminescence turnover assay with purified enzyme (S/B 7.8),CYP125A1,Luciferin-ME EGE was the only pro-luciferin substrate metabolized by these three cholesterol-metabolizing Mtb CYPs
same,luminescence turnover assay with purified enzyme (S/B 7.3),CYP124A1,Luciferin-ME EGE was the only pro-luciferin substrate metabolized by these three cholesterol-metabolizing Mtb CYPs
